Assay results from the supplement of paper PMC11908140.

B1: library; numbered along this chain (parent)
chain: MRKPRAAVGSGHRKQAASQEGRQKHAKNNSQAKPSACDGLARQPEEVVLQASVSSYHLFRDVAEVTAFRGSLLSWYDQEKRDLPWRRRAEDEMDLDRRAYAVWVSEVMLQQTQVATVINYYTGWMQKWPTLQDLASASLEEVNQLWAGLGYYSRGRRLQEGARKVVEELGGHMPRTAETLQQLLPGVGRYTAGAIASIAFGQATGVVDGNVARVLCRVRAIGADPSSTLVSQQLWGLAQQLVDPARPGDFNQAAMELGATVCTPQRPLCSQCPVESLCRARQRVEQEQLLASGSLSGSPDVEECAPNTGQCHLCLPPSEPWDQTLGVVNFPRKASRKPPREESSATCVLEQPGALGAQILLVQRPNSGLLAGLWEFPSVTWEPSEQLQRKALLQELQRWAGPLPATHLRHLGEVVHTFSHIKLTYQVYGLALEGQTPVTTVPPGARWLTQEEFHTAAVSTAMKKVFRVYQGQQPGTCMGSKRSQVSSPCSRKKPRMGQQVLDNFFRSHISTDAHSLNSAAQ

Variants of: B1
Test: 8OG:A repair function score (normalized; synonymous = 0, nonsense = -1) (normalized log-likelihood score); higher = more repair activity (WT-like)
Conditions: with 8OG:A DNA repair reporter (GFP) in HEK-293 MUTYH KO cells
Method in brief: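 GFP+ (repair) and GFP− bins of viable mCherry+ cells were collected at 72 h from MUTYH knockout HEK-293 cells bearing lentiviral MUTYH cDNA NNN codon-scan libraries in 10 pg/ml doxycycline, co-transfected with an 8OG:A GFP repair reporter and mCherry. Tile amplicons were sequenced, and per-tile Rosace fitness scores were normalized to a repair function score anchored on synonymous and nonsense distributions. Synonymous medians were set to 0 and nonsense to -1, with variants under 300 counts per million at the start removed.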
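Further: cells sorted at 72 h after reporter transfection.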

In order of falling “8OG:A repair function score” value:
1. MRKPRAAVGSGHRKQAASQEGRQKHAKNNSQAKPSACDGLARQPEEVVLQASVSSYHLFRDVAEVTAFRGSLLSWYDQEKRDLPWRRRAEDEMDLDRRAYAVWVSEVMLQQTQVATVINYYTGWMQKWPTLQDLASASLEEVNQLWAGLGYYSRGRRLQEGARKVVEELGGHMPRTAETLQQLLPGVGRYTAGAIASIAFGQATGVVDGNVARVLCRVRAIGADPSSTLVSQQLWGLAQQLVDPARPGDFNQAAMELGATVCTPQRPLCSQCPVESLCRARQRVEQEQLLASGSLSGSPDVEECAPNTGQCHLCLPPSEPWDQTLGVVNFPRKASRKPPREESSATCVLEQPGALGAQILLVQRPNSGLLAGLWEFPSVTWEPSEQLQRKALLQELQRWAGPLPATHLRHLGEVVHTFSHIKLTYQVYGLALEGQTPVTTVPPGAVWLTQEEFHTAAVSTAMKKVFRVYQGQQPGTCMGSKRSQVSSPCSRKKPRMGQQVLDNFFRSHISTDAHSLNSAAQ [R446V]  -0.116
2. MRKPRAAVGSGHRKQAASQEGRQKHAKNNSQAKPSACDGLARQPEEVVLQASVSSYHLFRDVAEVTAFRGSLLSWYDQEKRDLPWRRRAEDEMDLDRRAYAVWVSEVMLQQTQVATVINYYTGWMQKWPTLQDLASASLEEVNQLWAGLGYYSRGRRLQEGARKVVEELGGHMPRTAETLQQLLPGVGRYTAGAIASIAFGQATGVVDGNVARVLCRVRAIGADPSSTLVSQQLWGLAQQLVDPARPGDFNQAAMELGATVCTPQRPLCSQCPVESLCRARQRVEQEQLLASGSLSGSPDVEECAPNTGQCHLCLPPSEPWDQTLGVVNFPRKASRKPPREESSATCVLEQPGALGAQILLVQRPNSGLLAGLWEFPSVTWEPSEQLQRKALLQELQRWAGPLPATHLRHLGEVVHTFSHIKLTYQVYGLALEGQTPVTTVPPGAQWLTQEEFHTAAVSTAMKKVFRVYQGQQPGTCMGSKRSQVSSPCSRKKPRMGQQVLDNFFRSHISTDAHSLNSAAQ [R446Q]  -0.119
3. MRKPRAAVGSGHRKQAASQEGRQKHAKNNSQAKPSACDGLARQPEEVVLQASVSSYHLFRDVAEVTAFRGSLLSWYDQEKRDLPWRRRAEDEMDLDRRAYAVWVSEVMLQQTQVATVINYYTGWMQKWPTLQDLASASLEEVNQLWAGLGYYSRGRRLQEGARKVVEELGGHMPRTAETLQQLLPGVGRYTAGAIASIAFGQATGVVDGNVARVLCRVRAIGADPSSTLVSQQLWGLAQQLVDPARPGDFNQAAMELGATVCTPQRPLCSQCPVESLCRARQRVEQEQLLASGSLSGSPDVEECAPNTGQCHLCLPPSEPWDQTLGVVNFPRKASRKPPREESSATCVLEQPGALGAQILLVQRPNSGLLAGLWEFPSVTWEPSEQLQRKALLQELQRWAGPLPATHLRHLGEVVHTFSHIKLTYQVYGLALEGQTPVTTVPPGATWLTQEEFHTAAVSTAMKKVFRVYQGQQPGTCMGSKRSQVSSPCSRKKPRMGQQVLDNFFRSHISTDAHSLNSAAQ [R446T]  -0.232
4. MRKPRAAVGSGHRKQAASQEGRQKHAKNNSQAKPSACDGLARQPEEVVLQASVSSYHLFRDVAEVTAFRGSLLSWYDQEKRDLPWRRRAEDEMDLDRRAYAVWVSEVMLQQTQVATVINYYTGWMQKWPTLQDLASASLEEVNQLWAGLGYYSRGRRLQEGARKVVEELGGHMPRTAETLQQLLPGVGRYTAGAIASIAFGQATGVVDGNVARVLCRVRAIGADPSSTLVSQQLWGLAQQLVDPARPGDFNQAAMELGATVCTPQRPLCSQCPVESLCRARQRVEQEQLLASGSLSGSPDVEECAPNTGQCHLCLPPSEPWDQTLGVVNFPRKASRKPPREESSATCVLEQPGALGAQILLVQRPNSGLLAGLWEFPSVTWEPSEQLQRKALLQELQRWAGPLPATHLRHLGEVVHTFSHIKLTYQVYGLALEGQTPVTTVPPGASWLTQEEFHTAAVSTAMKKVFRVYQGQQPGTCMGSKRSQVSSPCSRKKPRMGQQVLDNFFRSHISTDAHSLNSAAQ [R446S]  -0.255
5. MRKPRAAVGSGHRKQAASQEGRQKHAKNNSQAKPSACDGLARQPEEVVLQASVSSYHLFRDVAEVTAFRGSLLSWYDQEKRDLPWRRRAEDEMDLDRRAYAVWVSEVMLQQTQVATVINYYTGWMQKWPTLQDLASASLEEVNQLWAGLGYYSRGRRLQEGARKVVEELGGHMPRTAETLQQLLPGVGRYTAGAIASIAFGQATGVVDGNVARVLCRVRAIGADPSSTLVSQQLWGLAQQLVDPARPGDFNQAAMELGATVCTPQRPLCSQCPVESLCRARQRVEQEQLLASGSLSGSPDVEECAPNTGQCHLCLPPSEPWDQTLGVVNFPRKASRKPPREESSATCVLEQPGALGAQILLVQRPNSGLLAGLWEFPSVTWEPSEQLQRKALLQELQRWAGPLPATHLRHLGEVVHTFSHIKLTYQVYGLALEGQTPVTTVPPGAWWLTQEEFHTAAVSTAMKKVFRVYQGQQPGTCMGSKRSQVSSPCSRKKPRMGQQVLDNFFRSHISTDAHSLNSAAQ [R446W]  -0.356
6. MRKPRAAVGSGHRKQAASQEGRQKHAKNNSQAKPSACDGLARQPEEVVLQASVSSYHLFRDVAEVTAFRGSLLSWYDQEKRDLPWRRRAEDEMDLDRRAYAVWVSEVMLQQTQVATVINYYTGWMQKWPTLQDLASASLEEVNQLWAGLGYYSRGRRLQEGARKVVEELGGHMPRTAETLQQLLPGVGRYTAGAIASIAFGQATGVVDGNVARVLCRVRAIGADPSSTLVSQQLWGLAQQLVDPARPGDFNQAAMELGATVCTPQRPLCSQCPVESLCRARQRVEQEQLLASGSLSGSPDVEECAPNTGQCHLCLPPSEPWDQTLGVVNFPRKASRKPPREESSATCVLEQPGALGAQILLVQRPNSGLLAGLWEFPSVTWEPSEQLQRKALLQELQRWAGPLPATHLRHLGEVVHTFSHIKLTYQVYGLALEGQTPVTTVPPGAYWLTQEEFHTAAVSTAMKKVFRVYQGQQPGTCMGSKRSQVSSPCSRKKPRMGQQVLDNFFRSHISTDAHSLNSAAQ [R446Y]  -0.414
7. MRKPRAAVGSGHRKQAASQEGRQKHAKNNSQAKPSACDGLARQPEEVVLQASVSSYHLFRDVAEVTAFRGSLLSWYDQEKRDLPWRRRAEDEMDLDRRAYAVWVSEVMLQQTQVATVINYYTGWMQKWPTLQDLASASLEEVNQLWAGLGYYSRGRRLQEGARKVVEELGGHMPRTAETLQQLLPGVGRYTAGAIASIAFGQATGVVDGNVARVLCRVRAIGADPSSTLVSQQLWGLAQQLVDPARPGDFNQAAMELGATVCTPQRPLCSQCPVESLCRARQRVEQEQLLASGSLSGSPDVEECAPNTGQCHLCLPPSEPWDQTLGVVNFPRKASRKPPREESSATCVLEQPGALGAQILLVQRPNSGLLAGLWEFPSVTWEPSEQLQRKALLQELQRWAGPLPATHLRHLGEVVHTFSHIKLTYQVYGLALEGQTPVTTVPPGANWLTQEEFHTAAVSTAMKKVFRVYQGQQPGTCMGSKRSQVSSPCSRKKPRMGQQVLDNFFRSHISTDAHSLNSAAQ [R446N]  -0.508
8. MRKPRAAVGSGHRKQAASQEGRQKHAKNNSQAKPSACDGLARQPEEVVLQASVSSYHLFRDVAEVTAFRGSLLSWYDQEKRDLPWRRRAEDEMDLDRRAYAVWVSEVMLQQTQVATVINYYTGWMQKWPTLQDLASASLEEVNQLWAGLGYYSRGRRLQEGARKVVEELGGHMPRTAETLQQLLPGVGRYTAGAIASIAFGQATGVVDGNVARVLCRVRAIGADPSSTLVSQQLWGLAQQLVDPARPGDFNQAAMELGATVCTPQRPLCSQCPVESLCRARQRVEQEQLLASGSLSGSPDVEECAPNTGQCHLCLPPSEPWDQTLGVVNFPRKASRKPPREESSATCVLEQPGALGAQILLVQRPNSGLLAGLWEFPSVTWEPSEQLQRKALLQELQRWAGPLPATHLRHLGEVVHTFSHIKLTYQVYGLALEGQTPVTTVPPGARALTQEEFHTAAVSTAMKKVFRVYQGQQPGTCMGSKRSQVSSPCSRKKPRMGQQVLDNFFRSHISTDAHSLNSAAQ [W447A]  -0.968
9. MRKPRAAVGSGHRKQAASQEGRQKHAKNNSQAKPSACDGLARQPEEVVLQASVSSYHLFRDVAEVTAFRGSLLSWYDQEKRDLPWRRRAEDEMDLDRRAYAVWVSEVMLQQTQVATVINYYTGWMQKWPTLQDLASASLEEVNQLWAGLGYYSRGRRLQEGARKVVEELGGHMPRTAETLQQLLPGVGRYTAGAIASIAFGQATGVVDGNVARVLCRVRAIGADPSSTLVSQQLWGLAQQLVDPARPGDFNQAAMELGATVCTPQRPLCSQCPVESLCRARQRVEQEQLLASGSLSGSPDVEECAPNTGQCHLCLPPSEPWDQTLGVVNFPRKASRKPPREESSATCVLEQPGALGAQILLVQRPNSGLLAGLWEFPSVTWEPSEQLQRKALLQELQRWAGPLPATHLRHLGEVVHTFSHIKLTYQVYGLALEGQTPVTTVPPGARCLTQEEFHTAAVSTAMKKVFRVYQGQQPGTCMGSKRSQVSSPCSRKKPRMGQQVLDNFFRSHISTDAHSLNSAAQ [W447C]  -1.09
10. MRKPRAAVGSGHRKQAASQEGRQKHAKNNSQAKPSACDGLARQPEEVVLQASVSSYHLFRDVAEVTAFRGSLLSWYDQEKRDLPWRRRAEDEMDLDRRAYAVWVSEVMLQQTQVATVINYYTGWMQKWPTLQDLASASLEEVNQLWAGLGYYSRGRRLQEGARKVVEELGGHMPRTAETLQQLLPGVGRYTAGAIASIAFGQATGVVDGNVARVLCRVRAIGADPSSTLVSQQLWGLAQQLVDPARPGDFNQAAMELGATVCTPQRPLCSQCPVESLCRARQRVEQEQLLASGSLSGSPDVEECAPNTGQCHLCLPPSEPWDQTLGVVNFPRKASRKPPREESSATCVLEQPGALGAQILLVQRPNSGLLAGLWEFPSVTWEPSEQLQRKALLQELQRWAGPLPATHLRHLGEVVHTFSHIKLTYQVYGLALEGQTPVTTVPPGAPWLTQEEFHTAAVSTAMKKVFRVYQGQQPGTCMGSKRSQVSSPCSRKKPRMGQQVLDNFFRSHISTDAHSLNSAAQ [R446P]  -1.13
11. MRKPRAAVGSGHRKQAASQEGRQKHAKNNSQAKPSACDGLARQPEEVVLQASVSSYHLFRDVAEVTAFRGSLLSWYDQEKRDLPWRRRAEDEMDLDRRAYAVWVSEVMLQQTQVATVINYYTGWMQKWPTLQDLASASLEEVNQLWAGLGYYSRGRRLQEGARKVVEELGGHMPRTAETLQQLLPGVGRYTAGAIASIAFGQATGVVDGNVARVLCRVRAIGADPSSTLVSQQLWGLAQQLVDPARPGDFNQAAMELGATVCTPQRPLCSQCPVESLCRARQRVEQEQLLASGSLSGSPDVEECAPNTGQCHLCLPPSEPWDQTLGVVNFPRKASRKPPREESSATCVLEQPGALGAQILLVQRPNSGLLAGLWEFPSVTWEPSEQLQRKALLQELQRWAGPLPATHLRHLGEVVHTFSHIKLTYQVYGLALEGQTPVTTVPPGARELTQEEFHTAAVSTAMKKVFRVYQGQQPGTCMGSKRSQVSSPCSRKKPRMGQQVLDNFFRSHISTDAHSLNSAAQ [W447E]  -1.14
12. MRKPRAAVGSGHRKQAASQEGRQKHAKNNSQAKPSACDGLARQPEEVVLQASVSSYHLFRDVAEVTAFRGSLLSWYDQEKRDLPWRRRAEDEMDLDRRAYAVWVSEVMLQQTQVATVINYYTGWMQKWPTLQDLASASLEEVNQLWAGLGYYSRGRRLQEGARKVVEELGGHMPRTAETLQQLLPGVGRYTAGAIASIAFGQATGVVDGNVARVLCRVRAIGADPSSTLVSQQLWGLAQQLVDPARPGDFNQAAMELGATVCTPQRPLCSQCPVESLCRARQRVEQEQLLASGSLSGSPDVEECAPNTGQCHLCLPPSEPWDQTLGVVNFPRKASRKPPREESSATCVLEQPGALGAQILLVQRPNSGLLAGLWEFPSVTWEPSEQLQRKALLQELQRWAGPLPATHLRHLGEVVHTFSHIKLTYQVYGLALEGQTPVTTVPPGARDLTQEEFHTAAVSTAMKKVFRVYQGQQPGTCMGSKRSQVSSPCSRKKPRMGQQVLDNFFRSHISTDAHSLNSAAQ [W447D]  -1.18
